{
  "source": "paper PMC5730196",
  "key": {"[1]": {"target": "DREP1 CIDE domain (DFF-related protein 1), wild type (Drosophila melanogaster)", "experiment": "SEC; purified proteins alone or mixed, Superdex 200 HR 10/30 in 20 mM Tris-HCl pH 8.0, 150 mM NaCl; peak fractions on SDS-PAGE"}, "[2]": {"target": "DREP3 CIDE domain (DFF-related protein 3), wild type (Drosophila melanogaster)", "experiment": "SEC; purified proteins alone or mixed, Superdex 200 HR 10/30 in 20 mM Tris-HCl pH 8.0, 150 mM NaCl; peak fractions on SDS-PAGE"}},
  "data": [
    {"substance": "DREP1 CIDE domain (DFF-related protein 1), wild type (domain or fragment)", "values": [
      {"measurement": "stoichiometry N", "setting": "[1]", "result": 2}
    ]},
    {"substance": "DREP3 CIDE domain (DFF-related protein 3), wild type (domain or fragment)", "values": [
      {"measurement": "stoichiometry N", "setting": "[2]", "result": 2}
    ]}
  ]
}
